According to patent US12605539B2, “Methods and systems for delivering drugs through skin of a body” (PASSPORT TECHNOLOGIES, INC., priority 2019, dated 2026):
Read-outs that look alike come from different tables or passages of the source.

Columns and labels:
[1] = Blood concentration of long-acting peptide (Semaglutide) after microporation patch, Sub Q or oral administration; assay type: in vivo, hairless Guinea pigs
Excerpt: Table 1 below provides data of three groups of microporation values used to create pathways in the skin in hairless Guinea pigs before applying the patch 102 containing a long-acting peptide once weekly, for example Semaglutide. Table 2 below provides data of six (6) groups of drug administration: three (3) groups for the patch 102, one (1) group for oral administration of the long-acting peptide, and two (2) groups for injected administration of the long-acting peptide.
Groups 1-3 in Tables 1 and 2 correspond to combinations of patches 102 and the microporation parameters for a particular administration. For example, the group 1 microporation parameters of Table 1 apply in conjunction with the administration of the patch 102 according to the parameters in Group 1 of Table 2. Accordingly, the patch 102 of group 1 has the nonwoven matrix, water holding material thickness of 38 μm, water holding material weight of 12 g/m^2, and WHC of […]. The patch 102 of group 1 includes a drug of 1 mg and a total solid weight of 3.25 mg with an area of 0.5 cm^2. This patch 102 is applied to an area of the skin having 200 pathways created according to the group 1 microporation parameters, where the energy applied to the microporation device is 5.2 mJ/filament, the filaments 200 are made from stainless steel and have a treated area of 10% per square centimeter of skin, where the filaments 200 treat an area of 0.5 cm^2. Similarly, group 2 of the patch 102 parameters applies to group 2 of the microporation parameters and group 3 of the patch 102 parameters applies to group 3 of the microporation parameters.
The graph 1000 includes the concentration of the long-acting peptide in nanograms/milliliter (ng/mL) along the y-axis and time in hours (hr) along the x-axis. […] The line 1002 represents the group 1 microporation parameters and the group 1 patch 102 parameters. The line 1004 represents the group 2 microporation parameters and the group 2 patch 102 parameters. The line 1006 represents the group 3 microporation parameters and the group 3 patch 102 parameters. Each of the three lines 1002, 1004, and 1006 follow the same general trend. For each of the groups 1-3 of parameters, the concentrations of the long-acting peptide generally increase to a maximum concentration relatively quickly before gradually lessening, finally reaching a concentration of 0.
The graph 1020 includes the concentration of the long-acting peptide in nanograms/milliliter (ng/mL) along the y-axis and time in hours (hr) along the x-axis. […] The line 1022 represents the group 4 injected drug. The line 1024 represents the group 5 injected drug. The line 1026 represents the group 6 […] drug. Each of the lines 1022 and 1024 follow the same general trend, rising to a highest level of concentration before gradually falling and approaching a concentration level of 0. […] The parameters of group 5 are shown by line 1024 to have a higher concentration level spike for the duration of the bioavailability of the long-acting polypeptide in the body as compared to the parameters of group 4 shown by line 1022.
The graph 1040 is zoomed out view of the graph 1000, giving a higher level view of the relationships of the lines 1002, 1004, and 1006. Similarly, the graph 1060 is a zoomed out view of the graph 1020, showing that the line 1026 (oral consumption of the long-lasting peptide) hovers around a concentration of 10 ng/mL and is not 0, as it appears from the graph 1020.
Based on the graphs 1000, 1020, 1040, and 1060, the area under the curve for each of groups 1-6 is shown below in Table 3: […]

[2] = Blood concentration of peptide (Teriparatide) after microporation patch (FIG. 17); assay type: in vivo, hairless Guinea pigs; conditions: hairless, guinea pig, topical, API 0.2 mg/cm^2 + 0.5 mg sucrose; for bioavailability: read-out: bioavailability (BA); for Cmax: read-out: maximum concentration (Cmax)
Experimental: Table 15 identifies two groups (group 4 and group 6) that both use stainless steel filaments 200 and create 200 and 400 pathways, respectively, having applied an energy pulse of 9.3 mJ per filament with a treated area of about 10% per square centimeter of skin for 0.5 cm2 and 1.0 cm^2, respectively. The patch 102 used for the administration of the peptide shown in graph 1700 has a thickness of 38 μm, a weight of 12 g/m^2, a WHC of 4 mg/cm^2, an API of 0.2 mg/cm^2, and a total solid weight of about 0.7 mg/cm^2.
The graph 1700 includes the concentration of the peptide in ng/mL along the y-axis and time in hours (hr) along the x-axis. […] The line 1702 represents the patch 102 and microporation parameters of group 4 described above. The line 1704 represents the patch 102 and microporation parameters of group 6 described above.

[3] = Blood concentration of long-acting protein (Etanercept), patch matrix comparison (Tables 8-10, FIG. 12); assay type: in vivo, rats; conditions: for peak concentration: 5.0 mg + sucrose 10 mg, 400 pores, 5.2 mJ/filament
Excerpt: Table 8 below provides data of two groups (groups 1 and 2) of microporation values for use with a patch 102 containing a long-acting protein, for example Etanercept. Table 10 below provides details of the components of the patch or drug formulation administered according to the groups 1 and 2. As shown, both groups have the same drug formulation of the long-acting protein and sucrose in the same quantities.
The graph 1200 includes the concentration of the long-acting protein in nanograms/milliliter (ng/mL) along the y-axis and time in hours (hr) along the x-axis. […] The line 1202 represents the group 1 patch 102 with microporation parameter according to Table 8 and patch 102 parameters according to Table 9. The line 1204 represents the group 2 patch 102 with microporation parameter according to Table 8 and patch 102 parameters according to Table 9. The two lines 1202 and 1204 follow different trends. The line 1202 spikes quickly to a peak of above 800 ng/mL and then remains generally between 500 and 700 ng/mL until at least about 70 hours. […] This highlights the effects that the patch 102 parameters can have on the administration of the drug formulation.

[4] = Blood concentration of long-acting protein (Etanercept) after patch with or without microporation or Sub Q; assay type: in vivo, rats
Excerpt: Table 4 below provides data of one group (group 1) of a patch 102 containing a long-acting protein, for example Etanercept, applied without any microporation, three groups (groups 2-4) of microporation values for use with patches 102, and one group (group 5) of injected administration of the long-acting protein. Table 6 below provides details of the components of the patch or drug formulation administered according to the groups 1-5.
The graph 1100 includes the concentration of the long-acting protein in nanograms/milliliter (ng/mL) along the y-axis and time in hours (hr) along the x-axis. […] The line 1102 represents the group 1 patch 102 with no microporation. The line 1104 represents the group 2 microporation parameters and the group 2 patch 102 parameters. The line 1106 represents the group 3 microporation parameters and the group 3 patch 102 parameters. The line 1108 represents the group 4 microporation parameters and the group 4 patch 102 parameters. The line 1110 represents the injected long-acting protein. Each of the three lines 1104, 1106, and 1108 follow the same general trend. For each of the groups 2-4 of parameters, the concentrations of the long-acting protein generally increase to a maximum concentration relatively quickly before gradually lessening, finally reaching a concentration of 0. The parameters of groups 3 and 4 are shown by line 1106 and 1108 to have the highest concentration level spike while the group 4 parameters result in the higher long term concentration. The parameters of group 2 are shown by line 1104 to have a generally lower concentration levels throughout as compared to the groups 3 and 4 parameters. The group 1 and group 5 administrations are lower than all of the group 2-4 administrations. Thus, for the long-acting protein, the patch administration at skin locations treated with microporation result in better bioavailabilities than even the injected administration of the drug, as detailed in Table 7 below. The graphs 1100 and 1120 also show what effects the additional components in the drug formulation (for example, sucrose, urea, and so forth) may have on the bioavailability and blood concentrations of the long-acting protein in rats.
Based on the graphs 1100 and 1120, the area under the curve for each of groups 1-5 is shown above in Table 7. […] The administrations using the patches 102 with the different microporation parameters are shown to result in the greatest concentration levels of the drug available for the longest durations.

[5] = 0.2 mg/cm^2, group 4: 200 pores, 0.5 cm^2, 9.3 mJ/filament
[6] = 0.2 mg/cm^2, group 6: 400 pores, 1.0 cm^2, 9.3 mJ/filament
[7] = group 1: patch 5.0 mg + sucrose 5 mg, without microporation
[8] = group 2: patch 5.0 mg + sucrose 5 mg, 400 pores, 5.2 mJ/filament
[9] = group 3: patch 5.0 mg + sucrose 5 mg + urea 5 mg, 400 pores, 5.2 mJ/filament
[10] = group 4: patch 5.0 mg + sucrose 5 mg + disodium citrate 5 mg, 400 pores, 5.2 mJ/filament

CC[C@H](C)[C@H](NC(=O)[C@H](Cc1ccccc1)NC(=O)[C@H](CCC(=O)O)NC(=O)[C@H](CCCCNC(=O)COCCOCCNC(=O)COCCOCCNC(=O)CC[C@H](NC(=O)CCCCCCCCCCCCCCCCC(=O)O)C(=O)O)NC(=O)[C@H](C)NC(=O)[C@H](C)NC(=O)[C@H](CCC(N)=O)NC(=O)CNC(=O)[C@H](CCC(=O)O)NC(=O)[C@H](CC(C)C)NC(=O)[C@H](Cc1ccc(O)cc1)NC(=O)[C@H](CO)NC(=O)[C@H](CO)NC(=O)[C@@H](NC(=O)[C@H](CC(=O)O)NC(=O)[C@H](CO)NC(=O)[C@@H](NC(=O)[C@H](Cc1ccccc1)NC(=O)[C@@H](NC(=O)CNC(=O)[C@H](CCC(=O)O)NC(=O)C(C)(C)NC(=O)[C@@H](N)Cc1cnc[nH]1)[C@@H](C)O)[C@@H](C)O)C(C)C)C(=O)N[C@@H](C)C(=O)N[C@@H](Cc1c[nH]c2ccccc12)C(=O)N[C@@H](CC(C)C)C(=O)N[C@H](C(=O)N[C@@H](CCCNC(=N)N)C(=O)NCC(=O)N[C@@H](CCCNC(=N)N)C(=O)NCC(=O)O)C(C)C [Semaglutide]
BA ([1]; group 1: patch 1 mg (2 mg/cm^2), 0.5 cm^2, 200 pores, 5.2 mJ/filament): 63.6% | BA ([1]; group 2: patch 2 mg (2 mg/cm^2), 1.0 cm^2, 400 pores, 5.2 mJ/filament): 47.0% | BA ([1]; group 3: patch 4 mg (2 mg/cm^2), 2.0 cm^2, 800 pores, 5.2 mJ/filament): 31.8% | BA ([1]; group 4: Sub Q 0.5 mg): 81.8% | BA ([1]; group 5: Sub Q 1.0 mg): 100.0% | BA ([1]; group 6: Oral 2.0 mg): 0.0%

CC[C@H](C)[C@H](NC(=O)[C@H](CCC(=O)O)NC(=O)[C@H](CO)NC(=O)[C@@H](NC(=O)[C@@H](N)CO)C(C)C)C(=O)N[C@@H](CCC(N)=O)C(=O)N[C@@H](CC(C)C)C(=O)N[C@@H](CCSC)C(=O)N[C@@H](Cc1cnc[nH]1)C(=O)N[C@@H](CC(N)=O)C(=O)N[C@@H](CC(C)C)C(=O)NCC(=O)N[C@@H](CCCCN)C(=O)N[C@@H](Cc1cnc[nH]1)C(=O)N[C@@H](CC(C)C)C(=O)N[C@@H](CC(N)=O)C(=O)N[C@@H](CO)C(=O)N[C@@H](CCSC)C(=O)N[C@@H](CCC(=O)O)C(=O)N[C@@H](CCCN=C(N)N)C(=O)N[C@H](C(=O)N[C@@H](CCC(=O)O)C(=O)N[C@@H](Cc1c[nH]c2ccccc12)C(=O)N[C@@H](CC(C)C)C(=O)N[C@@H](CCCN=C(N)N)C(=O)N[C@@H](CCCCN)C(=O)N[C@@H](CCCCN)C(=O)N[C@@H](CC(C)C)C(=O)N[C@@H](CCC(N)=O)C(=O)N[C@@H](CC(=O)O)C(=O)N[C@H](C(=O)N[C@@H](Cc1cnc[nH]1)C(=O)N[C@@H](CC(N)=O)C(=O)N[C@@H](Cc1ccccc1)C(=O)O)C(C)C)C(C)C [Teriparatide]
AUC [2, 5]: 3260 ng·h/mL | bioavailability [2, 5]: 37.4% | Cmax [2, 5]: 9.16 ng/mL | AUC [2, 6]: 2210 ng·h/mL | bioavailability [2, 6]: 25.4% | Cmax [2, 6]: 11.2 ng/mL

Etanercept
peak concentration ([3]; group 1: matrix 38 μm, 12 g/m^2, WHC 4 mg/cm^2): above 800 ng/mL | concentration at about 70 hours ([3]; group 2 (WHC 30 mg/cm^2)): below 100 ng/mL | time of peak concentration ([3]; group 2 (WHC 30 mg/cm^2)): about 32 hours | peak concentration ([3]; group 2: matrix 336 μm, 50 g/m^2, WHC 30 mg/cm^2): about 275 ng/mL | AUC [4, 7]: 0.172 µg·h/mL | BA [4, 7]: 0.0% | Cmax [4, 7]: 9.6 ng/mL | AUC [4, 8]: 208.5929 µg·h/mL | BA [4, 8]: 94.3% | Cmax [4, 8]: 5189.0 ng/mL | AUC [4, 9]: 604.0884 µg·h/mL | BA [4, 9]: 99.4% | Cmax [4, 9]: 16578.6 ng/mL | AUC [4, 10]: 712.8251 µg·h/mL | BA [4, 10]: 117.2% | Cmax [4, 10]: 16982.4 ng/mL | AUC ([4]; group 5: Sub Q 1.0 mg): 121.5723 µg·h/mL | BA ([4]; group 5: Sub Q 1.0 mg): 100.0% | Cmax ([4]; group 5: Sub Q 1.0 mg): 1298.7 ng/mL
